Results on 2 proteins are retold here after ChEMBL document CHEMBL2073879, “Human monocarboxylate transporter 2 (MCT2) is a high affinity pyruvate transporter” (J Biol Chem, 1998).

Substrate in data set [1]: CC(=O)C(=O)O
Put plainly: (§1) TP_TRANSPORTER: uptake in Xenopus laevis oocytes. The format is functional, cell-based. The settings on record: Oocyte.

Substrate in data set [2]: CC(O)C(=O)[O-].[Na+]
Described as §1. Format: functional, cell-based. The settings on record: Oocyte.

As a reminder, the Km is the substrate concentration at which the rate is half of its maximum.

B1: Monocarboxylate transporter 2 (Homo sapiens), O60669 (protein)
chain: MPPMPSAPPVHPPPDGGWGWIVVGAAFISIGFSYAFPKAVTVFFKEIQQIFHTTYSEIAWISSIMLAVMYAGGPVSSVLVNKYGSRPVVIAGGLLCCLGMVLASFSSSVVQLYLTMGFITGLGLAFNLQPALTIIGKYFYRKRPMANGLAMAGSPVFLSSLAPFNQYLFNTFGWKGSFLILGSLLLNACVAGSLMRPLGPNQTTSKSKNKTGKTEDDSSPKKIKTKKSTWEKVNKYLDFSLFKHRGFLIYLSGNVIMFLGFFAPIIFLAPYAKDQGIDEYSAAFLLSVMAFVDMFARPSVGLIANSKYIRPRIQYFFSFAIMFNGVCHLLCPLAQDYTSLVLYAVFFGLGFGSVSSVLFETLMDLVGAPRFSSAVGLVTIVECGPVLLGPPLAGKLVDLTGEYKYMYMSCGAIVVAASVWLLIGNAINYRLLAKERKEENARQKTRESEPLSKSKHSEDVNVKVSNAQSVTSERETNI
Turning to B1, the Km is 0.025 mM in data set [1] and 6.5 mM in data set [2].

B2: Monocarboxylate transporter 1 (Rattus norvegicus), P53987 (protein)
chain: MPPAIGGPVGYTPPDGGWGWAVVVGAFISIGFSYAFPKSITVFFKEIEIIFSATTSEVSWISSIMLAVMYAGGPISSILVNKYGSRPVMIAGGCLSGCGLIAASFCNTVQELYFCIGVIGGLGLAFNLNPALTMIGKYFYKKRPLANGLAMAGSPVFLSTLAPLNQAFFGIFGWRGSFLILGGLLLNCCVAGSLMRPIGPQQGKVEKLKSKESLQEAGKSDANTDLIGGSPKGEKLSVFQTVNKFLDLSLFTHRGFLLYLSGNVVMFFGLFTPLVFLSNYGKSKHFSSEKSAFLLSILAFVDMVARPSMGLAANTRWIRPRVQYFFAASVVANGVCHLLAPLSTTYVGFCIYAGVFGFAFGWLSSVLFETLMDLVGPQRFSSAVGLVTIVECCPVLLGPPLLGRLNDMYGDYKYTYWACGVILIIAGLYLFIGMGINYRLVAKEQKAEEKKRDGKEDETSTDVDEKPKKTMKETQSPAPLQNSSGDPAEEESPV
As for B2, the Michaelis-Menten constant (Km) in data set [1] was determined as 2.5 mM; in data set [2], 6 mM.
